The values below come from US7119174B2, “Diagnosis and treatment of AUR1 and/or AUR2 related disorders” (Sugen, Inc., priority 1995, dated 2006).

The subject of one data set is AUR2. The data set is described as follows: AUR2 protein expression by immunoblot after antisense oligo treatment of H1299 cells. The format is cell-based. The conditions noted are these: human tumor cell line H1299, lipofectin, each oligo 1 μM then 200 nM, harvested ~40 hours after initial treatment. The method, then: Human H1299 cells were seeded at ˜40–50% confluency in a 6 well plate (Falcon). The following day lipofectin (Gibco) and oligo(s) were mixed with OptiMEM (Gibco) such that the final concentration of lipofectin is 100 μg/mL and the final concentration of each oligo is 1 μM in a volume of 200 μL. The lipofectin/oligo/OptiMEM mixture was incubated at room temperature (20–25° C.) for 15 minutes, 800 μL of OptiMEM was added to the lipofectin/oligo/OptiMEM mixture, and mixed gently. The growth medium was removed from the H1299 cells, which were at ˜80% confluency. Cells were washed once with OptiMEM. The OptiMEM was aspirated, the lipofectin/oligo/OptiMEM mixture was added, cultures incubated at 37° C. for 4 hours. The lipofectin/oligo/OptiMEM mixture was removed and replaced with normal growth medium containing the antisense oligo(s) at a concentration of 200 nM. The plates were returned to the 37° C. incubator for 16–20 hours after which the growth medium was removed from the cells and they were washed once with OptiMEM. The OptiMEM was again aspirated and the lipofectin/oligo/OptiMEM mixture was added (prepared as described above) and the plates again were incubated at 37° C. for 4 hours. The lipofectin/oligo/OptiMEM mixture was removed again and replaced with normal growth medium containing the antisense oligo(s) at a concentration of 200 nM. The platea were returned to the 37° C. incubator for 16–20 hours. The cells were harvested (˜40 hours after initial treatment) and analyzed for aur2 mRNA by northern blot or AUR2 protein expression by immunoblot.

Data set [1] concerns the target myelin basic protein (Sigma).

Substitutions are numbered along the chain they refer to. Numbers in names are those of the source.

With “CAGGGCAGAGTGGTCACTTTC (listed as DNA, chemistry not given here) [SEQ ID NO:30, antisense oligonucleotide to nucleotides 1743–1763 of aur2]”, the AUR2 protein expression result in the data set on AUR2 is “significantly down regulated”.

Take “TGCAGTCGAACCTTGCCTCCA (listed as DNA, chemistry not given here) [SEQ ID NO:32, antisense oligonucleotide to nucleotides 1654–1674 of aur2]”: the AUR2 protein expression entry with AUR2 is on record as “significantly down regulated”.

Take “SEQ ID NO:16: printed in b341 as antisense oligonucleotide targeting human aur2 mRNA; probably misprint for one of SEQ ID NO:30-32 (antisense GARTTYGGNGARGTNTTYYTNGC; listed as DNA, chemistry not fully specified)”: the AUR2 protein expression result in the data set with AUR2 was “significantly down regulate”.

On to “SEQ ID NO:17: printed in b341 as antisense oligonucleotide targeting human aur2 mRNA; probably misprint for one of SEQ ID NO:30-32 (antisense AGNACNCCRAANGCCCACACRTC; listed as DNA, chemistry not fully specified)”, for which the AUR2 protein expression result in the data set on AUR2 is “significantly down regulate”.

Turning to “CGTCCGCCACTCCGACCAGCC (listed as DNA, chemistry not given here) [SEQ ID NO:31, antisense oligonucleotide to nucleotides 42–62 of aur2]”, in the data set with AUR2, the AUR2 protein expression entry is given as “significantly down regulated”.

B1: human AUR2 (AURORA TWO), endogenous protein in lysates of human tumors and tumor cell lines (protein)
chain: MDRSKENCISGPVKATAPVGGPKRVLVTQQFPCQNPLPVNSGQAQRVLCPSNSSQRVPLQAQKLVSSHKPVQNQKQKQLQATSVPHPVSRPLNNTQKSKQPLPSAPENNPEEELASKQKNEESKKRQWALEDFEIGRPLGKGKFGNVYLAREKQSKFILALKVLFKAQLEKAGVEHQLRREVEIQSHLRHPNILRLYGYFHDATRVYLILEYAPLGTVYRELQKLSKFDEQRTATYITELANALSYCHSKRVIHRDIKPENLLLGSAGELKIADFGWSVHAPSSRRTTLCGTLDYLPPEMIEGRMHDEKVDLWSLGVLCYEFLVGKPPFEANTYQETYKRISRVEFTFPDFVTEGARDLISRLLKHNPSQRPMLREVLEHPWITANSSKPSNCQNKESASKQS
On to B1, for which the “in vitro kinase assay, phosphorylation of myelin basic protein” value in data set [1] is “AUR1 and AUR2 immunocomplexes were able to phosphorylate myelin basic protein”.

B2: human AUR1 (AURORA ONE), endogenous protein in SW480 cell lysate (protein)
chain: MAQKENSYPWPYGRQTAPSGLSTLPQRVLRKEPVTPSALVLMSRSNVQPTAAPGQKVMENSSGTPDILTRHFTIDDFEIGRPLGKGKFGNVYLAREKKSHFIVALKVLFKSQIEKEGVEHQLRREIEIQAHLHHPNILRLYNYFYDRRRIYLILEYAPRGELYKELQKSCTFDEQRTATIMEELADALMYCHGKKVIHRDIKPENLLLGLKGELKIADFGWSVHAPSLRRKTMCGTLDYLPPEMIEGRMHNEKVDLWCIGVLCYELLVGNPPFESASHNETYRRIVKVDLKFPASVPTGAQDLISKLLRHNPSERLPLAQVSAHPWVRANSRRVLPPSALQSVA
B2: in data set [1], the “in vitro kinase assay, phosphorylation of myelin basic protein” value was “AUR1 and AUR2 immunocomplexes were able to phosphorylate myelin basic protein”.

B3: HA-tagged activated human AUR2 mutant T288D (protein)
chain: MDRSKENCISGPVKATAPVGGPKRVLVTQQFPCQNPLPVNSGQAQRVLCPSNSSQRVPLQAQKLVSSHKPVQNQKQKQLQATSVPHPVSRPLNNTQKSKQPLPSAPENNPEEELASKQKNEESKKRQWALEDFEIGRPLGKGKFGNVYLAREKQSKFILALKVLFKAQLEKAGVEHQLRREVEIQSHLRHPNILRLYGYFHDATRVYLILEYAPLGTVYRELQKLSKFDEQRTATYITELANALSYCHSKRVIHRDIKPENLLLGSAGELKIADFGWSVHAPSSRRTDLCGTLDYLPPEMIEGRMHDEKVDLWSLGVLCYEFLVGKPPFEANTYQETYKRISRVEFTFPDFVTEGARDLISRLLKHNPSQRPMLREVLEHPWITANSSKPSNCQNKESASKQSYPYDVPDYAS
For the molecule B3, the “in vitro kinase assay on protein from stable NIH3T3 lines” value in data set [1] is given as “the activated AUR2 mutant (T288D) had marked activity on this artificial substrate”. Further, the “in vitro kinase assay on protein from stable Rat1 lines” value in the data set with alpha-casein was “the wild-type and activated AUR2 (T288D) proteins had increased activity on this artificial substrate”.

B4: HA-tagged kinase inactive human AUR2 mutant K162M (protein)
chain: B3 chain with K162M, D288T
With B4, the “in vitro kinase assay on protein from stable NIH3T3 lines” value in data set [1] is “The wild-type and kinase inactive AUR2 mutant (K162M) were unable to phosphorylate myelin basic protein in vitro”. The “in vitro kinase assay on protein from stable Rat1 lines” value with alpha-casein is “The kinase inactive AUR2 mutant (K162M) was unable to phosphorylate-casein over the levels observed in the vector control cell line in vitro”.

B5: HA-tagged wild-type human AUR2 (entire coding domain with C-terminal HA epitope) (protein)
chain: B3 chain with D288T
Regarding B5, the “in vitro kinase assay on protein from stable NIH3T3 lines” value in data set [1] is “The wild-type and kinase inactive AUR2 mutant (K162M) were unable to phosphorylate myelin basic protein in vitro”. Further, the “in vitro kinase assay on protein from stable Rat1 lines” value in the data set with alpha-casein was “the wild-type and activated AUR2 (T288D) proteins had increased activity on this artificial substrate”.
